Our source for the Kd, dH and stoichiometry N values is paper PMC4587554.

The experiment concerns the target Pf12 (His26 to Ser321) (Plasmodium falciparum) (UniProt C6KSX0). Briefly: ITC; Pf12 10 μM in the sample cell; full length Pf41 or Pf41ΔID 100 μM added in 16 injections of 2.4 μL, 180 s apart; 25°C; one-site model; single experiment representative of two.

As a reminder, the Kd is the constant that tells how readily two partners part at equilibrium. Usually stoichiometry N stands for a count of units in the complex or per binding partner. Take “Pf41 full length (mature, Lys21 to Ser378) (from UniProt Q8I1Y0 21-378) (natural protein)”: the dissociation constant (Kd) amounted to 27.7 nM, the dH is -33.9 kcal/mol and the stoichiometry N is 0.85 Pf41:Pf12.
